Laboratory results as given in patent publication US20050182242A1, “Global analysis of protein activities using proteome chips” (priority 2001, published 2005).

How the values were obtained:
PI(4)P liposomes = test: Yeast proteome chip probed with PI(4)P liposomes; conditions: liposome binding signal on yeast proteome chip, Cy3-streptavidin detection
Text: (§1) To identify PI-binding proteins in yeast, liposomes were used as probes because the liposome provides the most relevant physiological condition to assay the interactors. Six types of liposomes were used. Each contains phosphatidylcholine (“PC”) with 1% (w/w) N-(biotinoyl)-1,2-dihexadecanoyl-sn-glycero-3-phosphoethanolamine, triethylammonium salt (biotin DHPE). The biotinylated lipid serves as a label that can be detected by Cy3-streptavidin (21). In addition to PC, the five other liposomes contain either 5% (w/w) PI(3)P, PI(4)P, PI(3,4)P2, PI(4,5)P2, or PI(3,4,5)P3 (FIG. 3A).
(§2) The protein-liposome interaction was assayed as follows. Appropriate amounts of each lipid in chloroform were mixed and dried under nitrogen. The lipid mixture was resuspended in TBS buffer by vortexing. The liposomes were created by sonication. Blocked proteome chips were washed three to five times in PBS buffer, and the extra liquid on the glass surface was removed by tapping the slides vertically on a KIMWIPE™. 200 μl of liposome solution was added to the proteome chip and immediately covered by a hydrophobic plastic cover slip (GRACE BIO-LAB™, USA). After trapped air bubbles were removed, the chip was incubated in a humidity chamber at RT for one hour. To remove the cover slip, the chip was immersed into large volume of PBS buffer (50 ml), so that the slip would float away. The chip was then moved to a second PBS bath (>50 ml) and washed 3×5 min with shaking at RT. After removing extra liquid on the surface of the chip, about 100 μl of Cy3 or Cy5 conjugated streptavidin (PIERCE™, USA; 1:2000 to 1:4000 dilution) was added to the surface and covered by a hydrophobic plastic cover slip (GRACE BIO-LABS™, USA). The chip was incubated for greater than 30 min in the dark at RT. The chip was then washed as described above. To completely remove the liquid on the chip, the chip was spun to dryness at 1500-2000 rpm for 5-10 min at RT.
(§3) • 1. S. Fields, Y. Kohara, D. J. Lockhart, Proc. Natl. Acad. Sci. 96, 8825 (1999); A. Goffeau et al., Science 274, 563 (1996). • 2 P. Ross-Macdonald et al., Nature 402, 413 (1999); J. L., DeRisi, V. R. Iyer, P. O. Brown, Science 278, 680 (1997); E. A. Winzeler et al., Science 285, 901 (1999). P. Uetz et al., Nature 403, 623 (2000); T. Ito et al., Proc. Natl. Acad. Sci. USA. 97, 1143 (2000) • 3 H. Zhu, M. Snyder, Curr. Opin. Chem. Biol. 5, 40 (2001). • 4 M. R. Martzen et al., Science 286, 1153 (1999). • 5 H. Zhu et al., Nat. Genet. 26, 283 (2000). • 6 G. MacBeath, S. L. Schreiber, Science 289, 1760 (2000). • 7 A. Caveman, J. Cell Sci. 113, 3543 (2000). • 8 P. Arenkov et al., Anal. Biochem 278, 123 (2000). • 9 D. A. Mitchell, T. K. Marshall, R. J. Deschenes, Yeast 9, 715 (1993). The expression vector pEGH was created by inserting an RGS-HisX6 epitope tag between the GST gene and the polycloning site of pEG(KG). The yeast ORFs were cloned using the strategy described previously (5), except every step was done in a 96-well format. Plasmid DNAs confirmed by DNA sequencing were reintroduced into both yeast (Y258) and E. coli (DH5a). […] 0.1 mM calcium was present in buffers in all subsequent steps. The chip was washed three times with PBS at RT. Cy3-conjugated streptavidin (Jackson IR, USA) (1:5000 dilution) was added to the chip and incubated for 30 min at RT. After extensive washing, the chip was spun dry and scanned using a microarray scanner; the data was subsequently acquired with the GENEPIX™ array densitometry software (Axon, USA). • 12 S. S. Hook, A. R. Means, Annu. Rev. […]

PI(3,4,5)P3 liposomes = test: Yeast proteome chip probed with PI(3,4,5)P3 liposomes; conditions: liposome binding signal on yeast proteome chip, Cy3-streptavidin detection
Text: as §1, §2
(§4) • 1. S. Fields, Y. Kohara, D. J. Lockhart, Proc. Natl. Acad. Sci. 96, 8825 (1999); A. Goffeau et al., Science 274, 563 (1996). • 2 P. Ross-Macdonald et al., Nature 402, 413 (1999); J. L., DeRisi, V. R. Iyer, P. O. Brown, Science 278, 680 (1997); E. A. Winzeler et al., Science 285, 901 (1999). P. Uetz et al., Nature 403, 623 (2000); T. Ito et al., Proc. Natl. Acad. Sci. USA. 97, 1143 (2000) • 3 H. Zhu, M. Snyder, Curr. Opin. Chem. Biol. 5, 40 (2001). • 4 M. R. Martzen et al., Science 286, 1153 (1999). • 5 H. Zhu et al., Nat. Genet. 26, 283 (2000). • 6 G. MacBeath, S. L. Schreiber, Science 289, 1760 (2000). • 7 A. Caveman, J. Cell Sci. 113, 3543 (2000). • 8 P. Arenkov et al., Anal. Biochem 278, 123 (2000). • 9 D. A. Mitchell, T. K. Marshall, R. J. Deschenes, Yeast 9, 715 (1993). The expression vector pEGH was created by inserting an RGS-HisX6 epitope tag between the GST gene and the polycloning site of pEG(KG). The yeast ORFs were cloned using the strategy described previously (5), except every step was done in a 96-well format. Plasmid DNAs confirmed by DNA sequencing were reintroduced into both yeast (Y258) and E. coli (DH5a). […] 0.1 mM calcium was present in buffers in all subsequent steps. The chip was washed three times with PBS at RT. Cy3-conjugated streptavidin (Jackson IR, USA) (1:5000 dilution) was added to the chip and incubated for 30 min at RT. After extensive washing, the chip was spun dry and scanned using a microarray scanner; the data was subsequently acquired with the GENEPIX™ array densitometry software (Axon, USA). • 12 S. S. Hook, A. R. Means, Annu. Rev. Pharmacol. Toxicol.41, 471 (2001). • 13 M. S. Cyert, R. Kunisawa, D. Kaim, J. Thorner, Proc. Natl. Acad. Sci. USA 88, 7376 (1991). • 14 D. A. Stirling, K. A. Welch, M. J. Stark, EMBO J. 13, 4329 (1994). • 15 F. Bohl, Kruse, EMBO J. 19, 5514 (2000); E. Bertrand et al., Mol. Cell 2, 437 (1998). • 16 D. C. Winter, E. Y. Choe, R. Li, Proc. Nat. Acad Sci. USA 96, 7288 (1999). • 17 C.

PI(4,5)P2 liposomes = test: Yeast proteome chip probed with PI(4,5)P2 liposomes; conditions: liposome binding signal on yeast proteome chip, Cy3-streptavidin detection
Text: as §1, §2, §4

[1] = tested on: phosphatidylcholine (PC) liposomes; test: Yeast proteome chip probed with PC liposomes; conditions: liposome binding signal on yeast proteome chip, Cy3-streptavidin detection
Text: as §1, §2, §3

PI(3)P liposomes = test: Yeast proteome chip probed with PI(3)P liposomes; conditions: liposome binding signal on yeast proteome chip, Cy3-streptavidin detection
Text: as §1
The protein-liposome interaction was assayed as follows. Appropriate amounts of each lipid in chloroform were mixed and dried under nitrogen. The lipid mixture was resuspended in TBS buffer by vortexing. The liposomes were created by sonication. Blocked proteome chips were washed three to five times in PBS buffer, and the extra liquid on the glass surface was removed by tapping the slides vertically on a KIMWIPE™. 200 μl of liposome solution was added to the proteome chip and immediately covered by a hydrophobic plastic cover slip (GRACE BIO-LAB™, USA). After trapped air bubbles were removed, the chip was incubated in a humidity chamber at RT for one hour. To remove the cover slip, the chip was immersed into large volume of PBS buffer (50 ml), so that the slip would float away. […]

[2] = tested on: phospholipids (phosphatidylinositols vs phosphatidylcholine); test: Proteome chip lipid-binding screen, overall analysis of six liposomes (PI/PC specificity); conditions: phospholipid liposome probes
Text: FIGS. 4A-4D. Analysis of the phosphatidylinositol-binding proteins. To determine the phosphatidylinositol (“PI”)-binding specificity of 150 positive proteins, their binding signals were normalized against the corresponding binding signals of phosphatidylcholine (“PC”). Based on the ratios (“PI/PC”), the proteins were grouped into four categories: (A) 30 strong and specific, (B) 43 strong and nonspecific, (C) 19 weak and specific, and (D) 58 weak and nonspecific phosphatidylinositol-binding proteins. The intensity represents the PI/PC signal ratio as shown by the scale in the figure. The column, labeled “10^n” to the right of the PI/PC binding ratios indicates the maximum binding signal intensity (open boxes) and its confidence interval (solid horizontal lines); the numbers indicate the log of the values. Boxes in the three columns to the right of the confidence interval column indicate membrane-associated proteins (“Membrane”), kinases (“Kinase”), and uncharacterized ORFs (“Unknown”), respectively.
To identify PI-binding proteins in yeast, liposomes were used as probes because the liposome provides the most relevant physiological condition to assay the interactors. Six types of liposomes were used. […] The biotinylated lipid serves as a label that can be detected by Cy3-streptavidin (21). […]

For “RIM15: yeast protein kinase, regulator of glucose metabolism, GST-HisX6 fusion”, the “PI(4)P” value (PI(4)P liposomes) was 2349.00, the “PI(3, 4, 5)P3” value (PI(3,4,5)P3 liposomes) was 1219.28 and the “PI(4, 5)P2” value (PI(4,5)P2 liposomes) was 687.19. For the same substance, the PC [1] was 244.76, the “PI(3)P” value (PI(3)P liposomes) was 52.50 and the “identified as lipid-binding interactor” value [2] was “identified”.
